In patent publication US20220064329A1 (Novo Nordisk, published 2022):

T1: recombinant human activated FVII (FVIIa) (human, UniProt P08709 61-212; P08709 213-466, ten glutamate residues of the Gla domain may be gamma-carboxylated)
T1 sequence 1: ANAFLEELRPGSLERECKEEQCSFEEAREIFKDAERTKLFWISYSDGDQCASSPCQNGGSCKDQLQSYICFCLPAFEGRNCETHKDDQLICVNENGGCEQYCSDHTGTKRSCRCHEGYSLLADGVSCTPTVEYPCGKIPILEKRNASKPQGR
T1 sequence 2: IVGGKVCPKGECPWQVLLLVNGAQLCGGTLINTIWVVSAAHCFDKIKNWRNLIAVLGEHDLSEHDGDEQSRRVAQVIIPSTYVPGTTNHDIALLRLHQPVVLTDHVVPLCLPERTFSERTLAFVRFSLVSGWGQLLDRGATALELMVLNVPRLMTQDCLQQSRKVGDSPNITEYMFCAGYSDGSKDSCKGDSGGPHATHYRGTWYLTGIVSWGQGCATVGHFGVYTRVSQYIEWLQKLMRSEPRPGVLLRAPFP

T2: recombinant human activated Factor VII (FVIIa) (human, UniProt P08709 61-212; P08709 213-466, Gla domain: ten glutamate residues may be gamma-carboxylated)
T2 construct: two-chain form after cleavage between Arg152 and Ile153; light chain (Gla, EGF domains) and heavy chain (protease domain) tethered by a disulfide bond; also called rFVIIa; human FVIIa
T2 sequence 1: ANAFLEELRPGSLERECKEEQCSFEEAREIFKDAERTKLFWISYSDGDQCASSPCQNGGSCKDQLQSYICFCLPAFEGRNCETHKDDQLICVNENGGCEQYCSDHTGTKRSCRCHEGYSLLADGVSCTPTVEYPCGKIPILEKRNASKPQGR
T2 sequence 2: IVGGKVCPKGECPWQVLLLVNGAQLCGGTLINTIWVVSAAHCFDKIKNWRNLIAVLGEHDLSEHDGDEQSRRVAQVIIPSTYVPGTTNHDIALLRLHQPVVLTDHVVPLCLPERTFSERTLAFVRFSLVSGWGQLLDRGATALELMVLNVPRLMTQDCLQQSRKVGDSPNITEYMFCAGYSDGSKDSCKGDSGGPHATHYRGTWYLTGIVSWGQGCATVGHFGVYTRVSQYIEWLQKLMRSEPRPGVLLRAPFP


How the values were obtained:
[1] = molecular target: T1, recombinant human activated FVII (FVIIa); assay: cell-based or functional assay
[2] = molecular target: T2, recombinant human activated Factor VII …; assay: SPR (Biacore T200), antibody captured on anti-murine IgG, FVIIa injected at 5-135 nM, 1:1 model
Description: Anti-murine IgG (by GE Healthcare) was immobilised on a CM4 sensor chip using standard amine coupling chemistry kit (both supplied by GE Healthcare). […] The running buffer was prepared by diluting 10-fold the 10×HBS-P buffer (supplied by GE Healthcare) and supplemented with 1 mg/ml BSA and 5 mM CaCl₂) to give 10 mM HEPES, 150 mM NaCl, 0.05% v/v Polysorbate 20(P20), pH 7.4, 5 mM CaCl₂), 1 mg/ml bovine serum albumin (BSA). […] Regeneration of the chip was achieved using regeneration buffer consisting of 10 mM Gly-HCl pH 1.7 (supplied by GE Healthcare). Binding data were analysed according to a 1:1 model using BiaEvaluation 4.1 supplied by the manufacturer (Biacore AB, Uppsala, Sweden).

[3] = molecular target: T2, recombinant human activated Factor VII …; assay: cell-based or functional assay

| Binder | Stimulation (fold): FXa generated by FVIIa with lipidated TLT-1 and 100 nM biAb, relative to free FVIIa [1] | Kd [2] | AT inhibition (kinh %) [3] | TGT activity (% FVIIa) [3] |
| --- | --- | --- | --- | --- |
| biAb0241 (bispecific antibody, human IgG4 S228P, kappa) heavy 1: QVQLQESGPGLVKPSQTLSLTCTVSGYSISSDSAWSWIRQPPGKGLEWIGYIQYSGSTNYNPSLKSRVTISRDTSKNQFSLKLSSVTAADTAVYYCARSVNYYGNSFAVGYWGQGTLVTVSSASTKGPSVFPLAPCSRSTSESTAALGCLVKDYFPEPVTVSWNSGALTSGVHTFPAVLQSSGLYSLSSVVTVPSSSLGTKTYTCNVDHKPSNTKVDKRVESKYGPPCPPCPAPEFLGGPSVFLFPPKPKDTLMISRTPEVTCVVVDVSQEDPEVQFNWYVDGVEVHNAKTKPREEQFNSTYRVVSVLTVLHQDWLNGKEYKCKVSNKGLPSSIEKTISKAKGQPREPQVYTLPPSQEEMTKNQVSLTCLVKGFYPSDIAVEWESNGQPENNYKTTPPVLDSDGSFLLYSKLTVDKSRWQEGNVFSCSVMHEALHNHYTQKSLSLSLGK light 1: EIVLTQSPATLSLSPGERATLSCRASQGISDYLHWYQQKPGEAPRLLIKYTSQPATGIPARFSGSGSGTDFTLTISSLEPEDFAVYYCQNGHSFPLTFGQGTKLEIKRTVAAPSVFIFPPSDEQLKSGTASVVCLLNNFYPREAKVQWKVDNALQSGNSQESVTEQDSKDSTYSLSSTLTLSKADYEKHKVYACEVTHQGLSSPVTKSFNRGEC heavy 2: not shown light 2: DIVVSQSPSSLAVSAGEKVTMSCKSSQSLLNSRTRKNYLAWYQQKPGQSPKLLIYWASTRESGVPDRFTGSGSGTDFTLTISSVQAEDLAVYYCKQSYNLLTFGAGTKLELKRTVAAPSVFIFPPSDEQLKSGTASVVCLLNNFYPREAKVQWKVDNALQSGNSQESVTEQDSKDSTYSLSSTLTLSKADYEKHKVYACEVTHQGLSSPVTKSFNRGEC | 35.3 fold | – | – | – |
| biAb0242 (bispecific antibody, human IgG4 S228P, kappa) heavy 1: QVQLQESGPGLVKPSQTLSLTCTVSGYSISSDSAWSWIRQPPGKGLEWIGYIQYSGSTNYNPSLKSRVTISRDTSKNQFSLKLSSVTAADTAVYYCARSVNYYGNSFAVGYWGQGTLVTVSSASTKGPSVFPLAPCSRSTSESTAALGCLVKDYFPEPVTVSWNSGALTSGVHTFPAVLQSSGLYSLSSVVTVPSSSLGTKTYTCNVDHKPSNTKVDKRVESKYGPPCPPCPAPEFLGGPSVFLFPPKPKDTLMISRTPEVTCVVVDVSQEDPEVQFNWYVDGVEVHNAKTKPREEQFNSTYRVVSVLTVLHQDWLNGKEYKCKVSNKGLPSSIEKTISKAKGQPREPQVYTLPPSQEEMTKNQVSLTCLVKGFYPSDIAVEWESNGQPENNYKTTPPVLDSDGSFLLYSKLTVDKSRWQEGNVFSCSVMHEALHNHYTQKSLSLSLGK light 1: EIVLTQSPATLSLSPGERATLSCRASQGISDYLHWYQQKPGEAPRLLIKYTSQPATGIPARFSGSGSGTDFTLTISSLEPEDFAVYYCQNGHSFPLTFGQGTKLEIKRTVAAPSVFIFPPSDEQLKSGTASVVCLLNNFYPREAKVQWKVDNALQSGNSQESVTEQDSKDSTYSLSSTLTLSKADYEKHKVYACEVTHQGLSSPVTKSFNRGEC heavy 2: not shown light 2: SIVMTQTPKFLLVSAGDRVTITCKASQSVSNDVAWYQQKPGQSPKLLINYASSRYTGIPDRFTGSGYGTDFTFTISTVQAEDLAVYFCQQDYSSPYTFGGGTKLEIERTVAAPSVFIFPPSDEQLKSGTASVVCLLNNFYPREAKVQWKVDNALQSGNSQESVTEQDSKDSTYSLSSTLTLSKADYEKHKVYACEVTHQGLSSPVTKSFNRGEC | 21.8 fold | – | – | – |
| biAb0243 (bispecific antibody, human IgG4 S228P, kappa) heavy 1: QVQLQESGPGLVKPSQTLSLTCTVSGYSISSDSAWSWIRQPPGKGLEWIGYIQYSGSTNYNPSLKSRVTISRDTSKNQFSLKLSSVTAADTAVYYCARSVNYYGNSFAVGYWGQGTLVTVSSASTKGPSVFPLAPCSRSTSESTAALGCLVKDYFPEPVTVSWNSGALTSGVHTFPAVLQSSGLYSLSSVVTVPSSSLGTKTYTCNVDHKPSNTKVDKRVESKYGPPCPPCPAPEFLGGPSVFLFPPKPKDTLMISRTPEVTCVVVDVSQEDPEVQFNWYVDGVEVHNAKTKPREEQFNSTYRVVSVLTVLHQDWLNGKEYKCKVSNKGLPSSIEKTISKAKGQPREPQVYTLPPSQEEMTKNQVSLTCLVKGFYPSDIAVEWESNGQPENNYKTTPPVLDSDGSFLLYSKLTVDKSRWQEGNVFSCSVMHEALHNHYTQKSLSLSLGK light 1: EIVLTQSPATLSLSPGERATLSCRASQGISDYLHWYQQKPGEAPRLLIKYTSQPATGIPARFSGSGSGTDFTLTISSLEPEDFAVYYCQNGHSFPLTFGQGTKLEIKRTVAAPSVFIFPPSDEQLKSGTASVVCLLNNFYPREAKVQWKVDNALQSGNSQESVTEQDSKDSTYSLSSTLTLSKADYEKHKVYACEVTHQGLSSPVTKSFNRGEC heavy 2: not shown light 2: DIQMTQTTSSLSASLGDRVTISCRASQDISNYLNWYQQKPDGTVKLLIFYTSRLHSGVPSRFSGSGSGTDYSLTISNLEPEDIATYYCQQDTKLPYTFGGGTKLEMKRTVAAPSVFIFPPSDEQLKSGTASVVCLLNNFYPREAKVQWKVDNALQSGNSQESVTEQDSKDSTYSLSSTLTLSKADYEKHKVYACEVTHQGLSSPVTKSFNRGEC | 25.5 fold | – | – | – |
| biAb0244 (bispecific antibody, human IgG4 S228P, kappa) heavy 1: QVQLKESGPGLVAPSQSLSITCTVSGFSLTDYGVSWIRQPPGKGLEWLGVIWGGGNTYNNSALKSRLSISKDNSKSQVFLKMNSLQADDTAMYFCAKHGYYGYVMDYWGQGTSVTVSSASTKGPSVFPLAPCSRSTSESTAALGCLVKDYFPEPVTVSWNSGALTSGVHTFPAVLQSSGLYSLSSVVTVPSSSLGTKTYTCNVDHKPSNTKVDKRVESKYGPPCPPCPAPEFLGGPSVFLFPPKPKDTLMISRTPEVTCVVVDVSQEDPEVQFNWYVDGVEVHNAKTKPREEQFNSTYRVVSVLTVLHQDWLNGKEYKCKVSNKGLPSSIEKTISKAKGQPREPQVYTLPPSQEEMTKNQVSLTCLVKGFYPSDIAVEWESNGQPENNYKTTPPVLDSDGSFLLYSKLTVDKSRWQEGNVFSCSVMHEALHNHYTQKSLSLSLGK light 1: DIVMTQSHKIMSTLVGDRVSITCKASQDVDPAVAWYQQKPGQYPKLLIYWASTRHTGVPDRFTGSGSGTDFTLTISNVQSEDLADYFCQQYSKYPYTFGGGTKLEIKRTVAAPSVFIFPPSDEQLKSGTASVVCLLNNFYPREAKVQWKVDNALQSGNSQESVTEQDSKDSTYSLSSTLTLSKADYEKHKVYACEVTHQGLSSPVTKSFNRGEC heavy 2: not shown light 2: DIVMTQTPLSSPVTLGQPASISCRSSQSLVHRQGNTYFHWLQQRPGQPPRLLIYKVSNRFSGVPDRFSGSGAGTDFTLKISRVEAEDVGVYYCSQSTHVPYTFGQGTKLEIKRTVAAPSVFIFPPSDEQLKSGTASVVCLLNNFYPREAKVQWKVDNALQSGNSQESVTEQDSKDSTYSLSSTLTLSKADYEKHKVYACEVTHQGLSSPVTKSFNRGEC | 2.7 fold | – | – | – |
| mAb0005 (antibody, V domains shown, fully murine, hybridoma-derived; also called 11F2; mAb005) VH: DVQLQESGPGLVEPSQSLSLTCTVTGYSITSDCAWSWIRQFPGNKLEWMGYINYSGSTNYNPSLKSRISVTRDTSKNQFFLRLSSVTAEDTATYYCTRSVNYYGNSFAVGYWGQGTSVTVSS VL: DIVMTQSPATLSVTAGDRVSLSCRASQGISDYLHWYQQKSHESPRLLIKYTSQPVSGIPSRFSGSGSGSEFTLSINSVEPEDVGVYYCQNGHSFPLTFGAGTKLELK | – | 0.14 nM | 133% | 115 % FVIIa |

Results, then the binder that gave them:

| Stimulation (fold): FXa generated by FVIIa with lipidated TLT-1 and 100 nM biAb, relative to free FVIIa [1] | Kd [2] | AT inhibition (kinh %) [3] | TGT activity (% FVIIa) [3] | Binder |
| --- | --- | --- | --- | --- |
| – | 0.27 nM | 111% | 103 % FVIIa | mAb0544 (antibody, V domains shown, fully murine, hybridoma-derived; also called 11F9) VH: DVQLQESGPGLVKPSQSLSLTCTVTGYSITSDCAWNWIRQFPGNKLEWMGYINYSGSTNYNPSLKSRISITRDTSQNHFFLQLSSVTAEDTATYYCTRSVNYYGNSFAVGYWGQGISVTVSS VL: DIVMSQSPATLSVTPGDRVSLSCRTSQDIGDYLHWYRQKSHESPRLLIKYTSQSVSGIPSRFSGSGSGSDFTLSINTVEPEDVGLYYCQNGHSFPLTFGTGTRLELK |
| – | 0.76 nM | 118% | 104 % FVIIa | mAb0552 (antibody, V domains shown, fully murine, hybridoma-derived; also called 11F18) VH: DVQLQESGPGLVKPSQSLSLTCTVTGYSITSDCAWNWIRQFPGNKLEWMGYINYSGSTNYNPSLKSRISITRDTSKNHFFLQLNSVTAEDTATYYCARSVDYFGNSFAVGYWGQGTSVAVSS VL: DIVMTQSPATLSVTPGDRVSLSCRASQSISDYLHWYQQKSHESPRLLIKYSSQSISGIPSRFSGSGSGSDFTLSINSVEPEDVGVYYCQNGHSFPLTFGAGTKLELK |
